Consider 13 molecules from patent publication US20200165613, “VIRUS LIKE PARTICLE” (The University of Leeds, published 2020).

The target in series [1] is T1, STNV coat protein wild-type (Satellite tobacco necrosis virus 1) (UniProt P03606).
T1 sequence: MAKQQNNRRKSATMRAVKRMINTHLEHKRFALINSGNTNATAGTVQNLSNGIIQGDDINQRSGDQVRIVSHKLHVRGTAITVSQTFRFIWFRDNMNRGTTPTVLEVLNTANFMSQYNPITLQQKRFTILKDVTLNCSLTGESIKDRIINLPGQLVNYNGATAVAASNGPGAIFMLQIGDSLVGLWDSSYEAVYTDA
The conditions noted are these: QELS after SEC; Rh 9.1 nm.

Series [2] concerns the target T2, STNV coat protein wild-type (Satellite tobacco necrosis virus 1, UniProt P03606 P03606:1-196).
T2 sequence: T1 sequence
The experiment in a line: competition; competes with B3; T=1 peak in svAUC. As to conditions: chain copies: trimeric capsomer / T=1 capsid; stem-loop.

In series [3] the target is T2, STNV coat protein wild-type. The experiment in a line: smFCS; T=1 at lower CP than wild-type 127-mer. As to conditions: chain copies: trimeric capsomer / T=1 capsid; label: 5' Alexa Fluor 488; five stem-loops.
For series [4] the target is unchanged. Nature of the series: smFCS; T=1 but cooperativity lost. The conditions noted are these: chain copies: trimeric capsomer / T=1 capsid; label: 5' Alexa Fluor 488.
For series [5] the target is unchanged. The experiment in a line: svAUC; T=1 capsids with similar efficiency to PS3; 2 mM Ca2+. The conditions noted are these: chain copies: trimeric capsomer / T=1 capsid; stem-loop.
For series [6] the target is unchanged. The experiment in a line: competition; unlabelled B3 displaces AF488-B3 at 100-fold excess. The conditions noted are these: chain copies: trimeric capsomer / T=1 capsid; stem-loop.
Series [7] shares this target. The experiment in a line: competition; competes; forms T=1; text states low nanomolar affinity for AUUA. As to conditions: chain copies: trimeric capsomer / T=1 capsid; stem-loop.
Series [8] shares this target. The experiment in a line: smFCS; best assembly substrate. The conditions noted are these: chain copies: trimeric capsomer / T=1 capsid; label: 5' Alexa Fluor 488; five stem-loops.
Series [9] shares this target. Nature of the series: smFCS; Rh collapse 20-30% then cooperative T=1 assembly. The conditions noted are these: chain copies: trimeric capsomer / T=1 capsid; label: 5' Alexa Fluor 488; five stem-loops.
Series [10] shares this target. Nature of the series: smFCS; more efficient than wild-type 127-mer. As to conditions: chain copies: trimeric capsomer / T=1 capsid; label: 5' Alexa Fluor 488; five stem-loops.

Substitutions are numbered along the chain they refer to.

In series [1], STNV-1 genome came in with an activity (% relative VLP yield) of 80.

Regarding ACAUGCAUUUAUGCACAC (ssRNA) [B3 UUUA], the binding result in series [2] is recorded as “binds”.

B1: Stable PS1-5 (ssRNA)
RNA: GGGCUGCCCUCAAGGACCAGGGCAGAAAAGAGGAAAAGAAAAGUGACAGAACACUUAUAAGGAACCACACAAGUGGAAGGAAAAAAGGAAGCUGCAAUAGCGCAAGGAAUCCGAAAAUUCGGAAAGGAA
For the molecule B1, the binding result in series [3] is on record as “binds”.

B2: Unstable PS1-5 (ssRNA)
RNA: B1 RNA with G75A, G76U
As to B2, the binding result in series [4] is reported as “binds”.

In the case of ACAUGCAAGGAUGCACAC (ssRNA) [B3 AGGA], the binding result in series [5] is on record as “binds”.

For ACAUGCAACAAUGCACAC (ssRNA) [B3 short / PS3 ACAA], the binding result in series [6] is given as “binds”.

Turning to ACAUGCAAUUAUGCACAC (ssRNA) [B3 AUUA], the binding result in [7] is reported as “binds”.

B3: Synthetic, stabilised PS1-5 (ssRNA)
RNA: GGGCUGCCCUCAAGGACCAGGGCAGAAAAGAGGAAAAGAAAAGUGACAGAACACUUAUAAGGAAAAAACGUACAAACGUUUUAAGGAAAAAAGGAAGCUGCAAUAGCGCAAGGAAUCCGAAAAUUCGGAAAGGAA
B3: the binding result in series [8] is listed as “binds”.

For ACAUGCAAUGAUGCACAC (ssRNA) [B3 AUGA], the binding result in [5] is listed as “binds”.

Turning to ACAUGCAAAAAUGCACAC (ssRNA) [B3 AAAA], in series [5], the binding result is “binds”.

B4: STNV-1 PS1-5 127-mer (ssRNA)
RNA: GAGUAAAGACAGGAAACUUUACUGACUAACAUGGCAAAACAACAGAACAACAGGCGAAAAUCCGCAACAAUGCGUGCAGUGAAGCGCAUGAUAAAUACACACUUGGAGCAUAAAAGGUUUGCACUGA
Turning to B4, the binding result in [9] is reported as “binds”.

B5: All PS3 (ssRNA)
RNA: GGGCCCCGCAACAAUGCGGGGAAGGAAGGAAGGAAGAAAACGUACAAACGUUUUAAGGAACAACGCAACAAUGCGUUGAAGGAAGGAAGGAAGGGGCGUACAAACGCCCCAAGGAAUUUUGCAACAAUGCAAAAAAGGAA
Regarding B5, the binding result in series [10] is on record as “binds”.

Consider ACAUGCAAGUAUGCACAC (ssRNA) [B3 AGUA], for which the binding result in [5] was “binds”.
